Data reported in PMC4253074 (Journal of molecular biology, 2014).
Numbering of substitutions follows the chain as printed. One block for each binder: values may come before it.

Key:
Test in all cases: cross-linking
[1] = target: PDE6 catalytic dimer (Pαβ) (bovine, UniProt P11541 1-859; P23439 1-853)
[2] = target: T1, PDE6 β-subunit (Pβ), catalytic subunit of bovine rod photoreceptor phosphodiesterase (bovine, UniProt P23439 1-853)
T1 sequence (looked up): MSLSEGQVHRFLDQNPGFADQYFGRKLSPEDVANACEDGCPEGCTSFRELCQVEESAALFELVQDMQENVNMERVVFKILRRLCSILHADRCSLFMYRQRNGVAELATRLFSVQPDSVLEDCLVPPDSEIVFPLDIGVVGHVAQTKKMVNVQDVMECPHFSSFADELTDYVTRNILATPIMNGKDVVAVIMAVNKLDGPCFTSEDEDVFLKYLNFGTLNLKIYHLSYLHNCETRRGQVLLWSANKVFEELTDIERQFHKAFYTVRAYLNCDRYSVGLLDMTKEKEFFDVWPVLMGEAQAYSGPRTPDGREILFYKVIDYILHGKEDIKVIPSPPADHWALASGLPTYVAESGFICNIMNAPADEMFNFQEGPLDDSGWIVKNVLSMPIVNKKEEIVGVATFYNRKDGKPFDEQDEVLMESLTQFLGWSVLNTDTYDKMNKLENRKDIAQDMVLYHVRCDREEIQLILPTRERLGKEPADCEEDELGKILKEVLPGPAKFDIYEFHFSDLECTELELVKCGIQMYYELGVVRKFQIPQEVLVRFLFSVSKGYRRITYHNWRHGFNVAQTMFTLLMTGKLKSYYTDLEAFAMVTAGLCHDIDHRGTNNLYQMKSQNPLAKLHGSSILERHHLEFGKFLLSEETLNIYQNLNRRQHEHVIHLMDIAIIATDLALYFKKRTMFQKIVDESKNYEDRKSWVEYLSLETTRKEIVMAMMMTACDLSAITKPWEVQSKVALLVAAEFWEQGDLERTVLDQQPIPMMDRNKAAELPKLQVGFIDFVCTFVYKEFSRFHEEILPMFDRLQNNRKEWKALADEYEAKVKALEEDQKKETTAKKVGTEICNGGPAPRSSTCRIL

[3] = target: T2, PDE6 α-subunit (Pα), catalytic subunit of bovine rod photoreceptor phosphodiesterase (bovine, UniProt P11541 1-859)
T2 sequence (looked up): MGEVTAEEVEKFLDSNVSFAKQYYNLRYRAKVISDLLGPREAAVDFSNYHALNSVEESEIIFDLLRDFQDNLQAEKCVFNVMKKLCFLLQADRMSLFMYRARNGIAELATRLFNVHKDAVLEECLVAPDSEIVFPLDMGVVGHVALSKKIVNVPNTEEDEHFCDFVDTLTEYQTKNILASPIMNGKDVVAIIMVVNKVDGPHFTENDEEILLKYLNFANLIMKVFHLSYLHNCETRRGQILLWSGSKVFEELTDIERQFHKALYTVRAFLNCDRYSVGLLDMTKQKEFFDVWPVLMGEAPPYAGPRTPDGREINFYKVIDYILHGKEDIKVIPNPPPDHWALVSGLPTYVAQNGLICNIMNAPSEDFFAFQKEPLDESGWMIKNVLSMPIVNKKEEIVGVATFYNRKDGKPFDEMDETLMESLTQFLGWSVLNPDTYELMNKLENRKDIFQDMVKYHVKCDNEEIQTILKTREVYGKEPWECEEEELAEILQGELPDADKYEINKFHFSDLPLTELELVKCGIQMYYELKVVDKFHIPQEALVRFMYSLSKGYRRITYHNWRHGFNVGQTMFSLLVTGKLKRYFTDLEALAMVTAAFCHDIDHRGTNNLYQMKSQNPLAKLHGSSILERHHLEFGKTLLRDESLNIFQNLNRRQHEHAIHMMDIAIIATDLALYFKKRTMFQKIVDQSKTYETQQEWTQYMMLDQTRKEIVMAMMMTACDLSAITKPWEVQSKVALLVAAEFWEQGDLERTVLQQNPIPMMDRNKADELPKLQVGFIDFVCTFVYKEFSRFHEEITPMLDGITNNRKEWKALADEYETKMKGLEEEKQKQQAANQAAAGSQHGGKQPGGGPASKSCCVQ

B1: PDE6 inhibitory γ-subunit (Pγ), endogenous, in the purified PDE6 holoenzyme (natural protein, bovine, UniProt P04972 1-87, looked up)
chain: MNLEPPKAEIRSATRVMGGPVTPRKGPPKFKQRQTRQFKSKPPKKGVQGFGDDIPGMEGLGTDITVICPWEAFNHLELHELAQYGII
- binding result [1]: binds

B2: wild-type Pγ, recombinant (Pγ 1–87) (natural protein, bovine, UniProt P04972 1-87, looked up)
chain: B1 chain
- binding result [1]: binds

The next lines start with the values.

- binding result [2]: binds
B3: Pγ 30C-MBP (natural protein, bovine, UniProt P04972 1-87, looked up)
chain: B1 chain with F30C, C68S
modifications: 4-(N-maleimido)benzophenone (MBP) on Cys30

- binding result [2]: binds
- binding result [3]: binds
B4: Pγ 73C-MBP (natural protein, bovine, UniProt P04972 1-87, looked up)
chain: B1 chain with C68S, F73C
modifications: 4-(N-maleimido)benzophenone (MBP) on Cys73
